Molecular target: Helicoverpa armigera gut proteases (HGP) (Helicoverpa armigera)
Assay: cell-based or functional assay

| inhibition of HGP activity (BApNA and Azocasein substrates) [%] | HGPI activity of the IRD alone at its IC50 concentration [%] | Binder |
| --- | --- | --- |
| 80 to 85 | – | QPICTNSSAGLKGCNYYNADGTFICEGESDPNHPKACPKNCDPNIAYSLC [inhibitory repeat domain IRD-9 of Capsicum annuum Pin-II proteinase inhibitors (CanPIs)] |
| 80 to 85 | 51 | NRLCTNCCAGRKGCNYYSADGTFICEGESDPNNPKACPRNCDPNIAYSLC [inhibitory repeat domain IRD-12 of Capsicum annuum Pin-II proteinase inhibitors (CanPIs)] |

Reference: patent US20150087584A1
